Measurements as given in article PMC5892887.

Columns and labels:
[1] = target: Core domain of bacteriophage T4 gene 32 protein (*III; protein minus both N- and C-domains) (bacteriophage T4) (UniProt P03695); experiment: cross-linking + other: MALDI mass spectrometry; MALDI mass-spectroscopic analysis of the EDC/NHS cross-linked reaction mixture of CTD and core domain
[2] = target: Core domain of bacteriophage T4 gene 32 protein (*III; protein minus both N- and C-domains) (bacteriophage T4) (UniProt P03695); experiment: cross-linking; EDC/NHS zero-length cross-linking in solution, read by SDS-PAGE; 20 uM CTD and 4 uM core domain (*III) (5:1), 40 mM MES pH 6.0, 5% glycerol, 0.5 mM EDC, 1.25 mM NHS, room temperature; also with rising p(dT)7 or NaCl
1-295 (bacteriophage T4) = experiment: single-molecule DNA stretching; conditions: Stopped-flow: 10 mM Tris-HCl pH 8.3, 0.1 mM Na2EDTA, 25 °C, NaCl varied (0.02 M for typical traces); DNA stretching: 0.1 M Na+
[3] = test system: ΔPR201 (bacteriophage T4); experiment: single-molecule DNA stretching; conditions: Stopped-flow: 10 mM Tris-HCl pH 8.3, 0.1 mM Na2EDTA, 25 °C, NaCl varied (0.02 M for typical traces); DNA stretching: 0.1 M Na+
[4] = test system: *I (gp32 lacking C-domain) (bacteriophage T4); experiment: single-molecule DNA stretching; conditions: Stopped-flow: 10 mM Tris-HCl pH 8.3, 0.1 mM Na2EDTA, 25 °C, NaCl varied (0.02 M for typical traces); DNA stretching: 0.1 M Na+
[5] = test system: gp32 (full-length gene 32 protein) (bacteriophage T4); experiment: single-molecule DNA stretching; conditions: Stopped-flow: 10 mM Tris-HCl pH 8.3, 0.1 mM Na2EDTA, 25 °C, NaCl varied (0.02 M for typical traces); DNA stretching: 0.1 M Na+

Substance	stoichiometry N [1]	percent inhibition of cross-linking at [p(dT)7]:[core domain] of 1 [2]	percent inhibition of cross-linking with 30 mM NaCl [2]	Ka (1-295 (bacteriophage T4))	Ka [3]	Ka [4]	Ka [5]
C-terminal domain (CTD) of bacteriophage T4 gene 32 protein (domain or fragment)	1	50%	50%	–	–	–	–
λ-DNA, double-stranded	–	–	–	5950 M⁻¹	4390 M⁻¹	–	–
λ-DNA, single-stranded (force-melted)	–	–	–	99300 M⁻¹	102000 M⁻¹	1.5e+06 M⁻¹	33600 M⁻¹
